Results from US20260297185 (published 2026).

Target: T1, mouse DLK1 (moDLK1) (mouse, UniProt Q09163)
T1 chain: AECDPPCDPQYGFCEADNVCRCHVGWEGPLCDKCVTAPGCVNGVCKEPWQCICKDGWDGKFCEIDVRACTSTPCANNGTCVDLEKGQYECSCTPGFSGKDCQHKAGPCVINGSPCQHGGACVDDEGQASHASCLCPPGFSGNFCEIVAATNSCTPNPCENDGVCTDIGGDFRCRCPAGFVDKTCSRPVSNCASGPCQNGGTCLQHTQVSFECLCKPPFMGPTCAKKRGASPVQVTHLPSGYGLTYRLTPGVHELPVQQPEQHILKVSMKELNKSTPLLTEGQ

B1: I18 (antibody, V domains shown)
VH: QVQLKESGPGLVAPSQSLSITCTVSGFSLILYGVHWVRQPPGKGLEWLGLIWAGGSTNYNSALMSRLSISKDNSKSQVFLKMNSLQTDDTAMYYCVRKHSNYLAMDYWGQGTSVTVSS
VL: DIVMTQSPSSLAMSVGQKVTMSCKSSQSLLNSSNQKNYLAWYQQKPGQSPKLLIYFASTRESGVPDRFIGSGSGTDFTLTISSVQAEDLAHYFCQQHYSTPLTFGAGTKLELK
B1: no binding.
